Assay results as given in the supplement of paper PMC5998384.

Columns and labels:
HeLa Kyoto [1] = experiment: melting temperature (median over replicates), in situ; higher = more thermally stable
HeLa Kyoto [2] = experiment: thermal stability score vs G1/S (z-score of summed log2 fold changes over temperatures); higher = more thermally stable than in G1/S
HeLa Kyoto [3] = experiment: solubility change mitosis vs G1/S (difference of NP-40 vs SDS log2 ratios) (log2 ratio difference); higher = more soluble in mitosis
HeLa Kyoto [4] = experiment: solubility in G1/S (NP-40 vs SDS abundance) (log2 ratio); higher = more soluble; settings: cell cycle stage: G1/S
[5] = cell cycle stage: early G1 (4.5 h after nocodazole release)
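Throughout, for melting temperature (median over replicates), in situ: HeLa Kyoto cells synchronized by double thymidine or nocodazole block, proteins quantified by TMT10plex mass spectrometry, three independent biological replicates.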
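Throughout, for solubility change mitosis vs G1/S (difference of NP-40 vs SDS log2 ratios): synchronized HeLa Kyoto cells (double thymidine block for G1/S, nocodazole release for mitosis), protein amounts in NP-40 versus SDS lysates quantified by mass spectrometry, three biological replicates.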
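Throughout, for solubility in G1/S (NP-40 vs SDS abundance): HeLa Kyoto cells arrested at G1/S by double thymidine block, proteins quantified by TMT10plex mass spectrometry in mild NP-40 versus SDS extracts, three biological replicates.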
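Throughout, for thermal stability score vs G1/S (z-score of summed log2 fold changes over temperatures): synchronized HeLa Kyoto cells, proteins quantified by TMT10plex mass spectrometry, three biological replicates, mitosis taken 0.5 h after nocodazole release, G1/S directly after double thymidine block.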

Sequence | melting temperature (HeLa Kyoto [1]; cell cycle stage: G1/S) | melting temperature (HeLa Kyoto [1]; cell cycle stage: mitosis) | thermal stability score (HeLa Kyoto [2]; [5]) | thermal stability score (HeLa Kyoto [2]; cell cycle stage: mitosis) | solubility change mitosis (log2) (HeLa Kyoto [3]) | solubility in G1/S (log2) (HeLa Kyoto [4])
MRPGAPGPLWPLPWGALAWAVGFVSSMGSGNPAPGGVCWLQQGQEATCSLVLQTDVTRAECCASGNIDTAWSNLTHPGNKINLLGFLGLVHCLPCKDSCDGVECGPGKACRMLGGRPRCECAPDCSGLPARLQVCGSDGATYRDECELRAARCRGHPDLSVMYRGRCRKSCEHVVCPRPQSCVVDQTGSAHCVVCRAAPCPVPSSPGQELCGNNNVTYISSCHMRQATCFLGRSIGVRHAGSCAGTPEEPPGGESAEEEENFV [FSTL3] | 51.7 °C | 54.8 °C | 2.88 | 2.67 | 0.0887 | -0.141
MRPGGERPVEGGACNGRSELELLKLRSAECIDEAAERLGALSRAIWSQPELAYEEHHAHRVLTHFFEREPPAASWAVQPHYQLPTAFRAEWEPPEARAPSATPRPLHLGFLCEYDALPGIGHACGHNLIAEVGAAAALGVRGALEGLPRPPPPVKVVVLGTPAEEDGGGKIDLIEAGAFTNLDVVFMAHPSQENAAYLPDMAEHDVTVKYYGKASHSASYPWEGLNALDAAVLAYNNLSVFRQQMKPTWRVHGIIKNGGVKPNIIPSYSELIYYFRAPSMKELQVLTKKAEDCFRAAALASGCTVEIKGGAHDYYNVLPNKSLWKAYMENGRKLGIEFISEDTMLNGPSGSTDFGNVSFVVPGIHPYFHIGSNALNHTEQYTEAAGSQEAQFYTLRTAKALAMTALDVIFKPELLEGIREDFKLKLQEEQFVNAVE [PM20D2] | 52.7 °C | 52.2 °C | -0.942 | -1.84 | 0.0574 | 0.167
MRPLLLLALLGWLLLAEAKGDAKPEDNLLVLTVATKETEGFRRFKRSAQFFNYKIQALGLGEDWNVEKGTSAGGGQKVRLLKKALEKHADKEDLVILFADSYDVLFASGPRELLKKFRQARSQVVFSAEELIYPDRRLETKYPVVSDGKRFLGSGGFIGYAPNLSKLVAEWEGQDSDSDQLFYTKIFLDPEKREQINITLDHRCRIFQNLDGALDEVVLKFEMGHVRARNLAYDTLPVLIHGNGPTKLQLNYLGNYIPRFWTFETGCTVCDEGLRSLKGIGDEALPTVLVGVFIEQPTPFVSLFFQRLLRLHYPQKHMRLFIHNHEQHHKAQVEEFLAQHGSEYQSVKLVGPEVRMANADARNMGADLCRQDRSCTYYFSVDADVALTEPNSLRLLIQQNKNVIAPLMTRHGRLWSNFWGALSADGYYARSEDYVDIVQGRRVGVWNVPYISNIYLIKGSALRGELQSSDLFHHSKLDPDMAFCANIRQQDVFMFLTNRHTLGHLLSLDSYRTTHLHNDLWEVFSNPEDWKEKYIHQNYTKALAGKLVETPCPDVYWFPIFTEVACDELVEEMEHFGQWSLGNNKDNRIQGGYENVPTIDIHMNQIGFEREWHKFLLEYIAPMTEKLYPGYYTRAQFDLAFVVRYKPDEQPSLMPHHDASTFTINIALNRVGVDYEGGGCRFLRYNCSIRAPRKGWTLMHPGRLTHYHEGLPTTRGTRYIAVSFVDP [PLOD1] | 54.3 °C | 54.5 °C | 3.69 | 3.91 | -0.0758 | -0.0992
MRPLPGALGVAAAAALWLLLLLLPRTRADEHEHTYQDKEEVVLWMNTVGPYHNRQETYKYFSLPFCVGSKKSISHYHETLGEALQGVELEFSGLDIKFKDDVMPATYCEIDLDKEKRDAFVYAIKNHYWYQMYIDDLPIWGIVGEADENGEDYYLWTYKKLEIGFNGNRIVDVNLTSEGKVKLVPNTKIQMSYSVKWKKSDVKFEDRFDKYLDPSFFQHRIHWFSIFNSFMMVIFLVGLVSMILMRTLRKDYARYSKEEEMDDMDRDLGDEYGWKQVHGDVFRPSSHPLIFSSLIGSGCQIFAVSLIVIIVAMIEDLYTERGSMLSTAIFVYAATSPVNGYFGGSLYARQGGRRWIKQMFIGAFLIPAMVCGTAFFINFIAIYYHASRAIPFGTMVAVCCICFFVILPLNLVGTILGRNLSGQPNFPCRVNAVPRPIPEKKWFMEPAVIVCLGGILPFGSIFIEMYFIFTSFWAYKIYYVYGFMMLVLVILCIVTVCVTIVCTYFLLNAEDYRWQWTSFLSAASTAIYVYMYSFYYYFFKTKMYGLFQTSFYFGYMAVFSTALGIMCGAIGYMGTSAFVRKIYTNVKID [TM9SF3] | 53.5 °C | 53.4 °C | 2.92 | 5.14 | -0.173 | -0.181
